# According to US20050042747A1, “Hivgp120-induced bob/gpr15 activation” (priority 2001, published 2005):
# B1: MIP-1α: natural ligand of CCR5 (protein, UniProt P10147 24-92, looked up)
# C-C motif chemokine 3: SLAADTPTACCFSYTSRQIPQNFIADYFETSSQCSKPGVIFLTKRSRQVCADPSEEWVQKYVSDLELSA
# B2: MIP-1β: natural ligand of CCR5 (protein, UniProt P13236 24-92, looked up)
# C-C motif chemokine 4: APMGSDPPTACCFSYTARKLPRNFVVDYYETSSLCSQPAVVFQTKRSKQVCADPSESWVQEYVYDLELN
# modifications: ends and bridges not checked
# notes: natural ligand of CCR5
# B3: RANTES: natural ligand of CCR5 (protein, UniProt P13501 24-91, looked up)
# C-C motif chemokine 5: SPYSSDTTPCCFAYIARPLPRAHIKEYFYTSGKCSNPAVVFVTRKNRQVCANPEKKWVREYINSLEMS
# Test system: HT-29 cells
# Assay: Calcium signaling in HT-29 cells (Fluo 4, confocal microscope)
# Format: cell-based, human
# Protocol: HT-29 cells (from ATCC) were grown in DMEM-F12 with 10% bovine calf serum, and were used 24-48 hours after plating. The Ghost (3) cells were obtained from the AIDS Research and Reference Reagent Program, and were grown DMEM with 10% bovine calf serum supplemented with 500 μg/ml G418, 100 μg/ml hygromycin, and 1 μg/ml puromycin.^27 These cells were used 24 to 96 hours after plating.
# Calcium studies were done on HT-29 cells and Ghost (3) cells loaded with Fluo 4. The cells were placed in Locke's buffer containing 5 μg/ml Fluo 4 AM ester (Molecular Probes) for 20 to 30 minutes, then in Locke's buffer for an additional 30 minutes before testing. Various concentrations of gp120IIIB (X4 trophic), gp120CM235 (R5 trophic), gp120mN (X4 trophic), gp12093TH975 (nonsyncytium-inducing primary isolate from an asymptomatic subject, trophism undetermined but likely R5), and gp120SF2 (X4R5 trophic), ranging from 10 nM to less than 1 pM, were added in Locke's buffer.^6 The gp120 proteins were obtained from the AIDS Research Reagent Referral Program. Some HT-29 cells were given one of the following pretreatments: 50 μg/ml anti-Bob37 overnight, 1 μg/ml pertussis toxin overnight, or 4.6 μg/ml U73122 for one hour. With the HT-29 cells only, similar tests were also performed with SDF-1, MIP-1α, MIP-1β, and RANTES rather than gp120. The cells were visualized every 4 seconds in a confocal microscope, using 488 nm argon laser excitation and detection filters appropriate for fluorescein-like dyes.
# For the first two or three days after plating, gp120 induces an immediate (within 4 seconds) calcium flux in undifferentiated HT-29 cells. The cells had previously been loaded with Fluo-4 AM ester (Molecular Probes, Eugene Oreg.) 5 micrograms/ml in the presence of Pleuronic F-127 0.02% in Locke's buffer for 30 minutes, then incubated at room temperature for an additional 30 minutes. Gp120IIIB was added while the cells were on an inverted confocal microscope using a 488 nm argon laser, with detection filters suitable for fluorescein-like dyes. […]
row,Molecule,"calcium signaling in HT-29 cells, in words"
1,B1,induced similar calcium signaling
2,B2,induced similar calcium signaling
3,B3,induced similar calcium signaling
